Measurements from US20230295271A1 (UNIVERSITY OF SOUTHERN CALIFORNIA, published 2023).

Columns and labels:
[1] = molecular target: T1, human Glucagon-like peptide-1 receptor (GLP-1R), purified His6-tagged protein (human, UniProt P43220 24-463, limits assumed); assay: titration ELISA, GLP-1R coated on the plate, purified scFv titrated; apparent Kd
T1 construct: Recombinant human His6-tagged GLP-1R purified from Sf9 biomass and immobilised on the plate for ELISA; also called purified GLP-1R protein

[2] = molecular target: T1, human Glucagon-like peptide-1 receptor …; assay: titration ELISA, apparent Kd compared with the parental scFv
[3] = molecular target: T2, recombinant mouse artemin protein (Ala112-Gly224 fragment) (mouse, UniProt Q9Z0L2 112-224); assay: SPR (Biacore T100), purified VHH and mouse artemin, 1:1 model
T2 construct: range 112-224; Bought as lyophilized powder from R&D Systems
T2 sequence (looked up): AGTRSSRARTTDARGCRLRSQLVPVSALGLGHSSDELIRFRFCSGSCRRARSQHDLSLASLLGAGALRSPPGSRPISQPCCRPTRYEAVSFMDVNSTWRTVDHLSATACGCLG
Experimental: (§1) In some cases, scFv/VHH were further purified by gel filtration using Superdex 75 column (GE Healthcare). Proteins were concentrated using Amicon Ultra-15 10 kDa centrifugal filter unit (Millipore) and stored in PBS at −70° C. Titration ELISA. Titration ELISA was used to measure binding of purified scFv to GLP-1R. GLP-1R immobilization in a 96 well plate and blocking was carried out as described for phage ELISA. A purified scFv was prepared at varying concentrations (from 1 nM to 3 μM) in 2% MPBS. 100 μl scFv aliquot of each concentration was added to a well and incubated at RT for 1.5 h. The plate was then washed with TPBS and PBS three times each. Primary anti His-tag Mouse mAb (Cell signaling Technology, Inc.) was diluted 1:250 in 2% MPBS and added into each well. […] The absorbance was read at 450 nm, using SpectraMax iD5 microplate reader (Molecular Devices, LLC). The dissociation constant Kd was calculated according to a published protocol. […] Binding of purified VHH nanobodies to Artemin and to untagged FAAH proteins was determined using Biacore T100 instrument (GE Healthcare). […] Kinetic constants for binding interaction were determined by fitting the sensorgrams with 1:1 binding model using Biacore T100 evaluation software, version 2.0 (GE healthcare).

[4] = molecular target: T3, human fatty acid amide hydrolase (FAAH), amino acids 30-579 (human, UniProt O00519 30-579); assay: SPR (Biacore T100), purified VHH and untagged FAAH, 1:1 model
T3 construct: range 30-579; Expressed in E. coli as an MBP fusion; The MBP tag was cleaved with Factor Xa, and SPR used the untagged FAAH; also called untagged FAAH; purified human FAAH protein
T3 sequence (looked up): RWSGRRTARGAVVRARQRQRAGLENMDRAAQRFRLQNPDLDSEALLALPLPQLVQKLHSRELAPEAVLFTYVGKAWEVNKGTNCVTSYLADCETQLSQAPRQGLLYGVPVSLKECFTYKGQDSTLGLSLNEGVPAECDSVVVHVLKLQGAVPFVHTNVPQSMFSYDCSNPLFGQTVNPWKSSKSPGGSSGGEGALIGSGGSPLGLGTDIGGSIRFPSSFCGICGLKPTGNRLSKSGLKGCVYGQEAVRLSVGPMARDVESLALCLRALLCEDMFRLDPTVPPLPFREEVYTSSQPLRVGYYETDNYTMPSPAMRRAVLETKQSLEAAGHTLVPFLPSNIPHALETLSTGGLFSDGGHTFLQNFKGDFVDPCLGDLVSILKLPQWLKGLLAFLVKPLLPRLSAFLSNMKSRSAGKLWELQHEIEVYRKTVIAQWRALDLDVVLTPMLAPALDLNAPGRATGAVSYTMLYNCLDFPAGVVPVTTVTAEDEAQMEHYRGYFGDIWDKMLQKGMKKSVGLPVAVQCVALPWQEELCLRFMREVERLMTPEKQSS
Experimental: as §1

[5] = molecular target: T3, human fatty acid amide hydrolase …; assay: SPR (Biacore T100), compared with parent A3 nanobody
Experimental: as §1

B1: GHM33 scFv (scFv)
scFv: VQLVQSGAEVKKPGSSVKVSCKASGGTFSSYAISWVRQAPGQGLEWMGGIIPIFGTANYAQKFQGRVTITADESTSTAYMELSSLRSEDTAVYYCARGRDDYYDSSAFDYWGQGTLVTVGGGGSGGGGSGGGGSGGGGSVLTQPPSVSVAPGQTARVTCGGNKIGSYSVYWYQHKPGQAPVLVVYDDSDRPSGIPERFSGSNSGNMATLTISGVEAGDEADYYCQVWDCTTDDVIFGGGTKLTVLHHHHHH
notes: Purified soluble His6-tagged scFv expressed from pADL-20c in the E. coli periplasm; The printed VH and VL start at the second residue and stop before the end of the J region; also called mutated scFv clone (GHM33); anti-GLP-1R scFv
Kd [1]: 0.1 µM | fold lower Kd than the parental scFv [2]: ~3 fold

B2: LM52 VHH nanobody (VHH)
VHH: VQLVESGGGLVQAGASLRLSCAASGGTLVNSSMGWFRQAPGKERDFVATINWRGDTTWYGESVKGRFSISRDNTKNMVYLQMNSLKPEDTAVYYCAVYRTRYYTGRRMMSPDEYDVWGQGTQVTVHH
notes: From the mutagenized llama VHH library; likely a mutant variant of LU5
Kd [3]: 0.102 µM

B3: OD1 VHH nanobody (VHH)
VHH: VQLVESGGGLVQAGGSLRLSCAASGRTFSDNTMAWHRQGPGKQRGLVAFITTGGRTVYTDSVKGRFIISRDNAKNTGFLQMNSLKPEDTAVYYCYVAGNWGQGTQVTVHH
notes: Purified soluble His6-tagged llama VHH; also called mutated VHH clone (OD1)
Kd [4]: 0.00065 µM | fold increase in FAAH affinity compared to parent VHH A3 [5]: ~2.4 fold
